From article PMC6167206 (Molecular microbiology, 2018)

Target: the molecule itself
Assay: cross-linking

B1: AcpA-His (natural protein)
chain: MEKDISRKIDLLNILIEEKRWFTLFELEKNLNCSSKTIRKDISIINDLLPKTIFIHSKKGKGVKLSLPQNQSISEAISNLLKKSLTFLAIQQLLEERSNTVTSLADKLYLPISSTNIVLKRVSKYIKKFGLSLEKKPLRIVGDEFQIILMFSERYLESYPDTEWPFTEYKEEMLIDYINYIEEKLEIVFYSNDKRRMAFIMTILFKRIKQGHKVKFSEWIIKETMESIYYKKIFEGKNVIKVNKNRSLNIEEQVLLVIMVKLSRYVSKDENNLKQEELVLYKEGESTTYTYVKNFISILEQELKIDLNNNEEFVYGMIEYCREAFHILKFIPILKAPEKDTCKYIKKHYEETFYLVKRAYNKWGAEMKLTDIPDEEIAKVTMRIVAIGKQHNINRKKVLLITGEGKSWEEYMKSRINKRYGDQLKFVGGHAKILNGNTDNIDNIDIDFIITTVPLNFSWKSIVYVSPILQERDFYEIGIFASK
- stoichiometry N: 2
